Test results from publication PMC12416549 (2024).
Where a chain is given by its changes, count along the chain named. Names may count otherwise.

T1: TNFR1 (Homo sapiens, UniProt P19438)
T1 chain: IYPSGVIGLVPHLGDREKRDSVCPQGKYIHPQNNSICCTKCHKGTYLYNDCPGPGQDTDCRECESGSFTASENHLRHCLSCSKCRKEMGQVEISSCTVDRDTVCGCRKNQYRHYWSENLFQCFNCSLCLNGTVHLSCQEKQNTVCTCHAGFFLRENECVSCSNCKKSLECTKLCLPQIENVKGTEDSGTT

B1: K48M (designed binder)
chain: SMEEEVEKAAKEYEKKKKEAIEKHLEKLKAKDKEAAERFLKELEEAAMEYAKDEAKTMSEEEAKRRAKKYKEKVLLSELSEEEQKEIKEAEEKLVRTILKYVEEAAK
B2: M58N (designed binder)
chain: B1 chain with M48K, M58N
B3: E22W (designed binder)
chain: B1 chain with E22W, M48K
B4: E34I (designed binder)
chain: B1 chain with E34I, M48K
B5: V6C (designed binder)
chain: B1 chain with V6C, M48K
B6: A9G (designed binder)
chain: B1 chain with A9G, M48K
B7: R65E (designed binder)
chain: B1 chain with M48K, R65E
B8: I87V (designed binder)
chain: B1 chain with M48K, I87V
B9: L76E (designed binder)
chain: B1 chain with M48K, L76E
B10: K93L (designed binder)
chain: B1 chain with M48K, K93L
B11: E83W (designed binder)
chain: B1 chain with M48K, E83W
B12: H24K (designed binder)
chain: B1 chain with H24K, M48K
B13: D32Q (designed binder)
chain: B1 chain with D32Q, M48K
B14: E103D (designed binder)
chain: B1 chain with M48K, E103D
B15: D32H (designed binder)
chain: B1 chain with D32H, M48K
B16: E37H (designed binder)
chain: B1 chain with E37H, M48K
B17: E5M (designed binder)
chain: B1 chain with E5M, M48K
B18: K11F (designed binder)
chain: B1 chain with K11F, M48K
B19: K41L (designed binder)
chain: B1 chain with K41L, M48K
B20: K100H (designed binder)
chain: B1 chain with M48K, K100H
B21: E14Y (designed binder)
chain: B1 chain with E14Y, M48K
B22: K68W (designed binder)
chain: B1 chain with M48K, K68W
B23: A55W (designed binder)
chain: B1 chain with M48K, A55W
B24: L25I (designed binder)
chain: B1 chain with L25I, M48K
B25: Q84T (designed binder)
chain: B1 chain with M48K, Q84T
B26: A51V (designed binder)
chain: B1 chain with M48K, A51V
B27: E45V (designed binder)
chain: B1 chain with E45V, M48K
B28: S1L (designed binder)
chain: B1 chain with S1L, M48K
B29: Q84H (designed binder)
chain: B1 chain with M48K, Q84H
B30: E92W (designed binder)
chain: B1 chain with M48K, E92W
B31: L28Y (designed binder)
chain: B1 chain with L28Y, M48K
B32: K11W (designed binder)
chain: B1 chain with K11W, M48K
B33: L43H (designed binder)
chain: B1 chain with L43H, M48K
B34: E92G (designed binder)
chain: B1 chain with M48K, E92G
B35: A105Q (designed binder)
chain: B1 chain with M48K, A105Q
B36: E7P (designed binder)
chain: B1 chain with E7P, M48K
B37: I87C (designed binder)
chain: B1 chain with M48K, I87C
B38: E61K (designed binder)
chain: B1 chain with M48K, E61K
B39: S77H (designed binder)
chain: B1 chain with M48K, S77H
B40: A67L (designed binder)
chain: B1 chain with M48K, A67L
B41: S80E (designed binder)
chain: B1 chain with M48K, S80E
B42: E3G (designed binder)
chain: B1 chain with E3G, M48K
B43: M58E (designed binder)
chain: B1 chain with M48K, M58E
B44: E72W (designed binder)
chain: B1 chain with M48K, E72W
B45: L28W (designed binder)
chain: B1 chain with L28W, M48K
B46: K52L (designed binder)
chain: B1 chain with M48K, K52L
B47: Y101S (designed binder)
chain: B1 chain with M48K, Y101S
B48: L40F (designed binder)
chain: B1 chain with L40F, M48K
B49: K41N (designed binder)
chain: B1 chain with K41N, M48K
B50: K16W (designed binder)
chain: B1 chain with K16W, M48K
B51: L76F (designed binder)
chain: B1 chain with M48K, L76F
B52: M2I (designed binder)
chain: B1 chain with M2I, M48K
B53: E62H (designed binder)
chain: B1 chain with M48K, E62H
B54: R65D (designed binder)
chain: B1 chain with M48K, R65D
B55: E44S (designed binder)
chain: B1 chain with E44S, M48K

Target: T1, TNFR1
Assay: yeast display SC50

| Binder | apparent Kd (screen) |
| --- | --- |
| B1 | 0.653 nM |
| B2 | 13.8 nM |
| B3 | 0.593 nM |
| B4 | 0.446 nM |
| B5 | 1.27 nM |
| B6 | 1.05 nM |
| B7 | 1.54 nM |
| B8 | 3 nM |
| B9 | 2.48 nM |
| B10 | 1.05 nM |
| B11 | 2.25 nM |
| B12 | 2.73 nM |
| B13 | 1.16 nM |
| B14 | 0.79 nM |
| B15 | 0.718 nM |
| B16 | 0.446 nM |
| B17 | 0.446 nM |
| B18 | 0.49 nM |
| B19 | 0.446 nM |
| B20 | 1.16 nM |
| B21 | 10.4 nM |
| B22 | 2.73 nM |
| B23 | 20.2 nM |
| B24 | 0.956 nM |
| B25 | 11.4 nM |
| B26 | 9.41 nM |
| B27 | 1.86 nM |
| B28 | 1.4 nM |

| Binder | apparent Kd (screen) |
| --- | --- |
| B29 | 3.3 nM |
| B30 | 10.4 nM |
| B31 | 0.446 nM |
| B32 | 0.79 nM |
| B33 | 3.63 nM |
| B34 | 1.54 nM |
| B35 | 0.593 nM |
| B36 | 1.4 nM |
| B37 | 3.3 nM |
| B38 | 1.69 nM |
| B39 | 0.49 nM |
| B40 | 7.78 nM |
| B41 | 5.84 nM |
| B42 | 3 nM |
| B43 | 8.56 nM |
| B44 | 0.446 nM |
| B45 | 0.49 nM |
| B46 | 0.869 nM |
| B47 | 0.956 nM |
| B48 | 0.869 nM |
| B49 | 0.49 nM |
| B50 | 0.49 nM |
| B51 | 0.539 nM |
| B52 | 1.27 nM |
| B53 | 0.79 nM |
| B54 | 0.405 nM |
| B55 | 1.86 nM |
